The target in the assay is recombinant Plasmodium vivax apical membrane antigen 1 ectodomain (rPvAMA1) (Plasmodium vivax). The experiment in a line: ELISA; phage ELISA: wells coated with rPvAMA1 (100 ug/ml in 0.1 M NaHCO3, pH 8.6), blocked with BSA; ~10^9 phage in TBST, 2 h at room temperature; HRP anti-M13 antibody, ABTS, A405; fold = absorbance on target / absorbance on BSA-blocked well. On the technique in general: An ELISA detects its analyte on a solid surface through an enzyme-linked reagent.

In the case of TSVSYINNRHNL [PdV3 phage-displayed dodecapeptide], the fold of binding signal (A405 on rPvAMA1 over A405 on BSA) was found to be 3.1 fold. In the case of WHWSWWNPNQLT [PdV2 phage-displayed dodecapeptide], the fold of binding signal (A405 on rPvAMA1 over A405 on BSA) came out at 3.5 fold.

(Values after publication PMC5600724.)
